This data set concerns the molecule itself. Briefly: native gel or EMSA. For orientation: A gel shift assay detects complexes by their altered migration in electrophoresis.

Experimental findings from publication PMC8478157 (Nature, 2021) are described below.

B1: recombinant eGFP–GBPL3 (natural protein, Arabidopsis thaliana, UniProt F4KG14 1-1082, looked up)
chain: MRSFFGRGGKDSPADSASPSPRSYPSTSPASSSAVTGPPRPIRLVYCDEKGKFRMDPEAVATLQLVKEPIGVVSVCGRARQGKSFILNQLLGRSNGFQVASTHKPCTKGLWLWSSPIKRTALDGTEYNLLLLDSEGIDAYDQTGTYSTQIFSLAVLLSSMFVYNQMGGIDEASLDRLSLVTQMTKHIRVKASGGTSSRSELGQFSPIFVWLLRDFYLDLVEDNRKISPRDYLEIALRPVQGSGGDIGAKNEIRDSIRALFPDRECFTLVRPLNNEKDLQRLDQISLEKLRPEFGAGLDAFTKFVFEKTRPKQLGGTVMTGPILVGITQSYLDALNNGAVPTITSSWQSVEETECRRAYDSGVEAYMAAFDQSKAPEEGALREEHEEAVRKALAIFNSNAVGNGSARKKFEDLLHKDLKKKFEDYKKNAFMEADLRCTSTIQRMEKQLRAACHASNANMDNVVKVLEARLAEYEASCHGPGKWQKLSVFLQQSLEGPIYDLTKRLIDSIAIEKNSLAMKFRSVEDAMKHLKQQLDDSERYKLEYQKRYDESNNDKKKLEDIYRERITKLQGENSSLNERCSTLVKTVESKKEEIKEWIRNYDQIVLKQKAVQEQLSSEMEVLRTRSTTSEARVAAAREQAKSAAEETKEWKRKYDYAVGEARSALQKAASVQERSGKETQLREDALREEFSITLANKDEEITEKATKLEKAEQSLTVLRSDLKVAESKLESFEVELASLRLTLSEMTDKLDSANKKALAYEKEANKLEQEKIRMEQKYRSEFQRFDEVKERCKAAEIEAKRATELADKARTDAVTSQKEKSESQRLAMERLAQIERAERQVENLERQKTDLEDELDRLRVSEMEAVSKVTILEARVEEREKEIGSLIKETNAQRAHNVKSLEKLLDEERKAHIAANRRAEALSLELQAAQAHVDNLQQELAQARLKETALDNKIRAASSSHGKRSRFEDVVDMDIGEGSDRILRTNKRARSTRGDDHGPTDEGDEDFQSHQDNGEEEEEEDYRKLTVQNLKHELTKYDCGHLLLNRGHQNKKEILALYEAHVLPKKALAREEERKKQREVTSS
B1: the binding result is on record as “binds”.
